The values that follow come from patent US20170015742A1 (published 2017).

The target in assay [1] is recombinant murine PDGF-BB (mouse, UniProt P31240 82-190). The assay can be described thus: cell-based or functional assay.
Another assay concerns the target recombinant rat PDGF-BB (rat, UniProt Q05028 74-182). Kind of assay: cell-based or functional assay.
The target of assay [2] is T1, Human VEGF-A 165 (human, UniProt P15692 207-395). Kind of assay: cell-based or functional assay.
Assay [3] deals with T1, Human VEGF-A 165. The assay can be described thus: SPR (Biacore), antibody captured via anti-human Fc, antigen in solution. The procedure: For example, approximately 9000 RU of goat anti-human Fc specific polyclonal antibody (Thermo Fisher Scientific Inc., Rockford, Ill.) diluted in 10 mM sodium acetate (pH 4.5) is directly immobilized across a CM5 research grade biosensor chip using a standard amine coupling kit according to manufacturer's instructions and procedures at 25 μg/ml. Unreacted moieties on the biosensor surface were blocked with ethanolamine. For kinetic analysis, rate equations derived from the 1:1 Langmuir binding model were fitted simultaneously to multiple antigen injections (using global fit analysis) with the use of Scrubber 2 (BioLogic Software), Biacore Biaevaluation 4.0.1 software or Biacore T100 Evaluation software. Purified antibodies or DVD-Ig molecules were diluted in running buffer for capture across goat anti-human Fc reaction surfaces. Antibodies or DVD-Ig molecules to be captured as a ligand (1 μg/ml) were injected over reaction matrices at a flow rate of 10 μl/minute. During the assay, all measurements were referenced against the capture surface alone (i.e., with no captured antibody or DVD-Ig molecule). […] The equilibrium dissociation constant KD (M) of the reaction between antibodies and the target antigen was then calculated from the kinetic rate constants by the following formula: KD=Koff/Kₒₙ. Binding was recorded as a function of time and kinetic rate constants were calculated.

Assay [4] addresses recombinant human VEGF165 (human, UniProt P15692 207-395). The assay can be described thus: cell-based or functional assay.
The target of assay [5] is recombinant human PDGF-BB (human, UniProt P01127 82-190). The assay can be described thus: cell-based or functional assay.

recombinant rat PDGF-BB, sequence (Q05028 74-182 limits assumed): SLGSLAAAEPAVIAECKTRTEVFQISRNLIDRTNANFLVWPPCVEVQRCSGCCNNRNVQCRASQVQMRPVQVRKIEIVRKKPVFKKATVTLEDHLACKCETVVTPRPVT
recombinant murine PDGF-BB, sequence (P31240 82-190 limits assumed): as the sequence (Q05028 74-182 limits assumed) above, with V83I, V102I counted along it
T1 sequence (P15692 other isoform, or with tags, fused parts or gaps limits assumed): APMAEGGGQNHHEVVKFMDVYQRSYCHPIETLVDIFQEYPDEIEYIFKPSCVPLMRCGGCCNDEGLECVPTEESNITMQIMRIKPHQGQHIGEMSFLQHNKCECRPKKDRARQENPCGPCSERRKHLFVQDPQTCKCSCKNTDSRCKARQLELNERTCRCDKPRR
recombinant human VEGF165, sequence (P15692 other isoform, or with tags, fused parts or gaps limits assumed): as above

B1: 4G8.3-SL-9E8.4 anti-VEGF-A/anti-PDGF-BB DVD-Ig (PR-1564012) (bispecific antibody, human IgG1, kappa, L234A L235A)
heavy: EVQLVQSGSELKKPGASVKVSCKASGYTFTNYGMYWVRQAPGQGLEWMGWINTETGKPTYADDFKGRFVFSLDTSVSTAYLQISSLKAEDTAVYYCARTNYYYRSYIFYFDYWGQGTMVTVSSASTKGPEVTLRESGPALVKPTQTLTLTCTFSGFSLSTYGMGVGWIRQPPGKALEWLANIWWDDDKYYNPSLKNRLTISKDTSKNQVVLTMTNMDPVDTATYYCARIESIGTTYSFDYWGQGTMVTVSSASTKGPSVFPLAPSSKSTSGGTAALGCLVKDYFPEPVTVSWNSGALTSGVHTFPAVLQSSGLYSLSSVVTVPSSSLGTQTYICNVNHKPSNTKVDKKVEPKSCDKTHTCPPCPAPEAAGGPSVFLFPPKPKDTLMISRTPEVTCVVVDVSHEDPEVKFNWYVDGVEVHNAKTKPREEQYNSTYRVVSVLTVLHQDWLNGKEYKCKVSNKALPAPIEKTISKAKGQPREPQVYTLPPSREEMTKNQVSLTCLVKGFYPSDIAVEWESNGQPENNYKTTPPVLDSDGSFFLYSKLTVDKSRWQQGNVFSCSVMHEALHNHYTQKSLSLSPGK
light: DTVLTQSPATLSLSPGERATLSCRASESVSTHMHWYQQKPGQAPRLLIYGASNLESGVPARFSGSGSGTDFTLTISSLEPEDFAVYFCQQSWNDPFTFGQGTKLEIKRTVAAPSVFIFPPEFVLTQSPGTLSLSPGERATLSCERSSGDIGDSYVSWYQQKPGQAPRLVIYADDQRPSGIPDRFSGSGSGTDFTLTISRLEPEDFAVYYCQSYDINIDIVFGGGTKVEIKGTVAAPSVFIFPPSDEQLKSGTASVVCLLNNFYPREAKVQWKVDNALQSGNSQESVTEQDSKDSTYSLSSTLTLSKADYEKHKVYACEVTHQGLSSPVTKSFNRGEC
Regarding B1, the “Potency IC50 (nM) mPDGF-BB (NIH-3T3 proliferation)” value (“Potency IC50 (nM) mPDGF-BB” below) in assay [1] is 0.29 nM. Also, the “Potency IC50 (nM) ratPDGF-BB (NIH-3T3 proliferation)” value (from here on “Potency IC50 (nM) ratPDGF-BB”) in the assay with recombinant rat PDGF-BB was found to be 0.65 nM.

B2: hBEW-1E3.1 (antibody, V domains shown)
VH: EIQLVQSGSELKKPGASVKVSCKASGYPFTNSGMYWVKQAPGQGLEYMGWINTEAGKPTYADDFKGRFVFSLDTSVSTAYLQISSLKAEDTAVYFCARWGYISDNSYGWFDYWGQGTLVTVSS
VL: ETVLTQSPATLSLSPGERATLSCRASEGVYSYMHWYQQKPGQQPRLLIYKASNLASGVPARFSGSGSGTDFTLTISSLEPEDFAVYFCHQNWNDPLTFGQGTKLEIK
notes: Humanized IgG
Consider B2, for which the “hVEGF165 IC50 (nM), HMVEC-d proliferation” value (“hVEGF165 IC50 (nM)” for short) in the assay with Human VEGF-A 165 [2] amounted to 0.138 nM. In the assay with Human VEGF-A 165 [3], the Kd turned out to be 7.7 pM and the kon was 1.1e+07 M⁻¹ s⁻¹.

B3: hBEW-1E3.4 (antibody, V domains shown)
VH: EIQLVQSGSELKKPGASVKVSCKASGYPFTNSGMYWVKQAPGQGLEYMGWINTEAGKPTYADDFKGRFVFSLDTSVSTAYLQISSLKAEDTAVYFCARWGYISDNSYGWFDYWGQGTLVTVSS
VL: ATQLTQSPSSLSASVGDRVTISCRASEGVYSYMHWYQQKPGKQPKLLIYKASNLASGVPSRFSGSGSGTDFTLTISSLQPEDFATYFCHQNWNDPLTFGQGTKLEIK
notes: Humanized IgG
Turning to B3, the “hVEGF165 IC50 (nM)” value with Human VEGF-A 165 [2] was determined as 0.212 nM. In the assay with Human VEGF-A 165 [3], this molecule displayed a Kd of 9.7 pM and a kon of 9.8e+06 M⁻¹ s⁻¹.

B4: hBEW-1E3.5 (antibody, V domains shown)
VH: EIQLVQSGAEVKKPGASVKVSCKASGYPFTNSGMYWVKQAPGQGLEYMGWINTEAGKPTYADDFKGRFTFTLDTSTSTAYLEIRSLRSDDTAVYFCARWGYISDNSYGWFDYWGQGTLVTVSS
VL: ATQLTQSPSSLSASVGDRVTISCRASEGVYSYMHWYQQKPGKQPKLLIYKASNLASGVPSRFSGSGSGTDFTLTISSLQPEDFATYFCHQNWNDPLTFGQGTKLEIK
notes: Humanized IgG
With B4, the “hVEGF165 IC50 (nM)” value in the assay with Human VEGF-A 165 [2] is 0.184 nM. In the assay with Human VEGF-A 165 [3], this molecule yielded a Kd of 10 pM and a kon of 1e+07 M⁻¹ s⁻¹.

B5: hBEW-1E3.2 (antibody, V domains shown)
VH: EIQLVQSGAEVKKPGASVKVSCKASGYPFTNSGMYWVKQAPGQGLEYMGWINTEAGKPTYADDFKGRFTFTLDTSTSTAYLEIRSLRSDDTAVYFCARWGYISDNSYGWFDYWGQGTLVTVSS
VL: ETVLTQSPATLSLSPGERATLSCRASEGVYSYMHWYQQKPGQQPRLLIYKASNLASGVPARFSGSGSGTDFTLTISSLEPEDFAVYFCHQNWNDPLTFGQGTKLEIK
notes: Humanized IgG
On to B5, for which, in the assay with Human VEGF-A 165 [2], the “hVEGF165 IC50 (nM)” value stood at 0.161 nM. In the assay with Human VEGF-A 165 [3], this molecule showed a Kd of 9.2 pM and a kon of 1.1e+07 M⁻¹ s⁻¹.

B6: CODV015 cross-over DVD-Ig (PR-1571827) (bispecific antibody, human IgG1, kappa, L234A L235A)
heavy: EVQLVQSGSELKKPGASVKVSCKASGYTFTNYGMYWVRQAPGQGLEWMGWINTETGKPTYADDFKGRFVFSLDTSVSTAYLQISSLKAEDTAVYYCARTNYYYRSYIFYFDYWGQGTMVTVSSGGGGSGGGEFVLTQSPGTLSLSPGERATLSCERSSGDIGDSYVSWYQQKPGQAPRLVIYADDQRPSGIPDRFSGSGSGTDFTLTISRLEPEDFAVYYCQSYDINIDIVFGGGTKVEIKGGGSGASTKGPSVFPLAPSSKSTSGGTAALGCLVKDYFPEPVTVSWNSGALTSGVHTFPAVLQSSGLYSLSSVVTVPSSSLGTQTYICNVNHKPSNTKVDKKVEPKSCDKTHTCPPCPAPEAAGGPSVFLFPPKPKDTLMISRTPEVTCVVVDVSHEDPEVKFNWYVDGVEVHNAKTKPREEQYNSTYRVVSVLTVLHQDWLNGKEYKCKVSNKALPAPIEKTISKAKGQPREPQVYTLPPSREEMTKNQVSLTCLVKGFYPSDIAVEWESNGQPENNYKTTPPVLDSDGSFFLYSKLTVDKSRWQQGNVFSCSVMHEALHNAYTQKSLSLSPGK
light: EVTLRESGPALVKPTQTLTLTCTFSGFSLSTYGMGVGWIRQPPGKALEWLANIWWDDDKYYNPSLKNRLTISKDTSKNQVVLTMTNMDPVDTATYYCARIESIGTTYSFDYWGQGTMVTVSSGGGGSGGGDTVLTQSPATLSLSPGERATLSCRASESVSTHMHWYQQKPGQAPRLLIYGASNLESGVPARFSGSGSGTDFTLTISSLEPEDFAVYFCQQSWNDPFTFGQGTKLEIKGGSRTVAAPSVFIFPPSDEQLKSGTASVVCLLNNFYPREAKVQWKVDNALQSGNSQESVTEQDSKDSTYSLSSTLTLSKADYEKHKVYACEVTHQGLSSPVTKSFNRGEC
As for B6, the “HMVEC-d hVEGF165 Potency IC50” value in assay [4] was determined as 0.104 nM. Also, in assay [5], the “NIH-3T3 hPDGF-BB Potency IC50” value stood at 0.075 nM.

B7: CODV016 cross-over DVD-Ig (PR-1571828) (bispecific antibody, human IgG1, kappa, L234A L235A)
heavy: EVQLVQSGSELKKPGASVKVSCKASGYTFTNYGMYWVRQAPGQGLEWMGWINTETGKPTYADDFKGRFVFSLDTSVSTAYLQISSLKAEDTAVYYCARTNYYYRSYIFYFDYWGQGTMVTVSSGGGGSGGGEFVLTQSPGTLSLSPGERATLSCERSSGDIGDSYVSWYQQKPGQAPRLVIYADDQRPSGIPDRFSGSGSGTDFTLTISRLEPEDFAVYYCQSYDINIDIVFGGGTKVEIKGGGSGASTKGPSVFPLAPSSKSTSGGTAALGCLVKDYFPEPVTVSWNSGALTSGVHTFPAVLQSSGLYSLSSVVTVPSSSLGTQTYICNVNHKPSNTKVDKKVEPKSCDKTHTCPPCPAPEAAGGPSVFLFPPKPKDTLMISRTPEVTCVVVDVSHEDPEVKFNWYVDGVEVHNAKTKPREEQYNSTYRVVSVLTVLHQDWLNGKEYKCKVSNKALPAPIEKTISKAKGQPREPQVYTLPPSREEMTKNQVSLTCLVKGFYPSDIAVEWESNGQPENNYKTTPPVLDSDGSFFLYSKLTVDKSRWQQGNVFSCSVMHEALHNAYTQKSLSLSPGK
light: EVTLRESGPALVKPTQTLTLTCTFSGFSLSTYGMGVGWIRQPPGKALEWLANIWWDDDKYYNPSLKNRLTISKDTSKNQVVLTMTNMDPVDTATYYCARIESIGTTYSFDYWGQGTMVTVSSGGGGSDTVLTQSPATLSLSPGERATLSCRASESVSTHMHWYQQKPGQAPRLLIYGASNLESGVPARFSGSGSGTDFTLTISSLEPEDFAVYFCQQSWNDPFTFGQGTKLEIKGGSRTVAAPSVFIFPPSDEQLKSGTASVVCLLNNFYPREAKVQWKVDNALQSGNSQESVTEQDSKDSTYSLSSTLTLSKADYEKHKVYACEVTHQGLSSPVTKSFNRGEC
Consider B7, for which the “HMVEC-d hVEGF165 Potency IC50” value in assay [4] stood at 0.115 nM. The “NIH-3T3 hPDGF-BB Potency IC50” value in assay [5] was found to be 0.096 nM.

B8: 9E8.4-GS-4G8.3 DVD-Ig (PR-1563988) (bispecific antibody, human IgG1, kappa, L234A L235A)
heavy: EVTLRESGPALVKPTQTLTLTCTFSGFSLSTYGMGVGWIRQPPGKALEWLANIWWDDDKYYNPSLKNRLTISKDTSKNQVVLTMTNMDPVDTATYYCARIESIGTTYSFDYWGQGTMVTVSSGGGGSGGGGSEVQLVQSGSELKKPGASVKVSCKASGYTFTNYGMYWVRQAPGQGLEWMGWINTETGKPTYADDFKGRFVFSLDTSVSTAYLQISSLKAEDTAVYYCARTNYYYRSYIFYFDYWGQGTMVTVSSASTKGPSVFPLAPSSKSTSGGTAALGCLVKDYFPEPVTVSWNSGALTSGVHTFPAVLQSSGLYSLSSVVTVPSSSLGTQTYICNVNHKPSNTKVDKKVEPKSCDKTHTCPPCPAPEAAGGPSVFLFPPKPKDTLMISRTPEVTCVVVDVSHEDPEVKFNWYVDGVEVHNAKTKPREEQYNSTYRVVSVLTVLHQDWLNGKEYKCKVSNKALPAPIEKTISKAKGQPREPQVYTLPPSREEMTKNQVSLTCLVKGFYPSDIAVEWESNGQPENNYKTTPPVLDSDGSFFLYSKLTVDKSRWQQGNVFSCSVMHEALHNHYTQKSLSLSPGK
light: EFVLTQSPGTLSLSPGERATLSCERSSGDIGDSYVSWYQQKPGQAPRLVIYADDQRPSGIPDRFSGSGSGTDFTLTISRLEPEDFAVYYCQSYDINIDIVFGGGTKVEIKGGGSGGGGSGDTVLTQSPATLSLSPGERATLSCRASESVSTHMHWYQQKPGQAPRLLIYGASNLESGVPARFSGSGSGTDFTLTISSLEPEDFAVYFCQQSWNDPFTFGQGTKLEIKRTVAAPSVFIFPPSDEQLKSGTASVVCLLNNFYPREAKVQWKVDNALQSGNSQESVTEQDSKDSTYSLSSTLTLSKADYEKHKVYACEVTHQGLSSPVTKSFNRGEC
With B8, the “HMVEC-d hVEGF165 Potency IC50” value in assay [4] was determined as 2.64 nM. Moreover, in assay [5], the “NIH-3T3 hPDGF-BB Potency IC50” value was 0.076 nM.

B9: 4G8.3-LS-9E8.4 anti-VEGF-A/anti-PDGF-BB DVD-Ig (PR-1564013) (bispecific antibody, human IgG1, kappa, L234A L235A)
heavy: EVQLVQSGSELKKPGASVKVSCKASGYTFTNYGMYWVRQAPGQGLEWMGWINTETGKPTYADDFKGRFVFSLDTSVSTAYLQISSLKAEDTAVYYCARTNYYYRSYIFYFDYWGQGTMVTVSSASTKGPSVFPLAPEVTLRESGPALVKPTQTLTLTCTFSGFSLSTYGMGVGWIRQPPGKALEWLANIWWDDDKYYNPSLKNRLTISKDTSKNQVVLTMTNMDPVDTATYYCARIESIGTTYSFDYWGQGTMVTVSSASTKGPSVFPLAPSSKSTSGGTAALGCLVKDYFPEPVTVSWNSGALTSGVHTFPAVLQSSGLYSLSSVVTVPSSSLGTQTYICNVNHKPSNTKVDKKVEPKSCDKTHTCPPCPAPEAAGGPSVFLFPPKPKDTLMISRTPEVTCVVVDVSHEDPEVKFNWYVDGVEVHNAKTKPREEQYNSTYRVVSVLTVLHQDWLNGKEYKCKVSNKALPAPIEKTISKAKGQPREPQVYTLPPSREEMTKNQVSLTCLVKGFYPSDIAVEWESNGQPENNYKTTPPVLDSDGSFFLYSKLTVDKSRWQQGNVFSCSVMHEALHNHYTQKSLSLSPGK
light: DTVLTQSPATLSLSPGERATLSCRASESVSTHMHWYQQKPGQAPRLLIYGASNLESGVPARFSGSGSGTDFTLTISSLEPEDFAVYFCQQSWNDPFTFGQGTKLEIKRTVAAPEFVLTQSPGTLSLSPGERATLSCERSSGDIGDSYVSWYQQKPGQAPRLVIYADDQRPSGIPDRFSGSGSGTDFTLTISRLEPEDFAVYYCQSYDINIDIVFGGGTKVEIKGTVAAPSVFIFPPSDEQLKSGTASVVCLLNNFYPREAKVQWKVDNALQSGNSQESVTEQDSKDSTYSLSSTLTLSKADYEKHKVYACEVTHQGLSSPVTKSFNRGEC
Regarding B9, the “Potency IC50 (nM) mPDGF-BB” value in assay [1] is 0.11 nM. Moreover, in the assay with recombinant rat PDGF-BB, the “Potency IC50 (nM) ratPDGF-BB” value is 0.21 nM.

B10: 4G8.3-GS-9E8.4 anti-VEGF-A/anti-PDGF-BB DVD-Ig (PR-1564010) (bispecific antibody, human IgG1, kappa, L234A L235A)
heavy: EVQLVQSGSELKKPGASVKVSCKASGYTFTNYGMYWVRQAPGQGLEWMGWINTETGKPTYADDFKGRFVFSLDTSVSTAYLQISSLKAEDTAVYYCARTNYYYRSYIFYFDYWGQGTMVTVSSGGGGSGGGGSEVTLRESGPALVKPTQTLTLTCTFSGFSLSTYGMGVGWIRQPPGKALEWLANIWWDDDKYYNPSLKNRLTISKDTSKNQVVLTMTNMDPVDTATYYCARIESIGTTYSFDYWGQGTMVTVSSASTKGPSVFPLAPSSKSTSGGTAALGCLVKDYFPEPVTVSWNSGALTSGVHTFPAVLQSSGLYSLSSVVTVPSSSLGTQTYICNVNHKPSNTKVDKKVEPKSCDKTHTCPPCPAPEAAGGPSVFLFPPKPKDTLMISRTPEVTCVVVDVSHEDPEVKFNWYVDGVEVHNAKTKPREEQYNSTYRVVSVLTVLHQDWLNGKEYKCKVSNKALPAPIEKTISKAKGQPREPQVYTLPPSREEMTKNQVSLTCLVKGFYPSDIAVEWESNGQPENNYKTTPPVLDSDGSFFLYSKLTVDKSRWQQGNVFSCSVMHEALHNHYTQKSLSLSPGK
light: DTVLTQSPATLSLSPGERATLSCRASESVSTHMHWYQQKPGQAPRLLIYGASNLESGVPARFSGSGSGTDFTLTISSLEPEDFAVYFCQQSWNDPFTFGQGTKLEIKRGGSGGGGSGEFVLTQSPGTLSLSPGERATLSCERSSGDIGDSYVSWYQQKPGQAPRLVIYADDQRPSGIPDRFSGSGSGTDFTLTISRLEPEDFAVYYCQSYDINIDIVFGGGTKVEIKGTVAAPSVFIFPPSDEQLKSGTASVVCLLNNFYPREAKVQWKVDNALQSGNSQESVTEQDSKDSTYSLSSTLTLSKADYEKHKVYACEVTHQGLSSPVTKSFNRGEC
Regarding B10, the “Potency IC50 (nM) mPDGF-BB” value in assay [1] turned out to be 0.44 nM. Further, the “Potency IC50 (nM) ratPDGF-BB” value with recombinant rat PDGF-BB is 1.36 nM.

As usually defined, the Kd is the constant that tells how readily two partners part at equilibrium. By kon is commonly meant a measure of how fast the partners come together. A higher kon goes with fast association.
